± gives the uncertainty stated by the source.

The data set can be described thus: protein stability index of a GFP-peptide fusion (yeast GPS) (PSI 1-4); higher = more stable; sorted into four equal gates, so the index is relative within each strain. The method in brief:
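For each peptide, the protein stability index sums the read frequency in every gate after multiplying it by the gate number. Read frequencies came from plasmids that were PCR-amplified from each gate and Illumina-sequenced, with reads assigned to strains by barcodes. The gates were four equal bins of GFP/Cherry fluorescence ratio applied to mid-log yeast in leucine-free medium carrying a pooled library of tiled 17-residue yeast protein peptides fused downstream of GFP on a Cherry-expressing plasmid.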

Sequence VSNKFEKIFHYGHVFLG [PUP3] showed a protein stability index (doa10∆) of 2.94 ± 0.28.

Sequence VSRGQSAVLLETTLGEM [PRP8] gave a protein stability index (doa10∆) of 2.13 ± 0.12 and a protein stability index (pdr5∆) of 2.36 ± 0.15.

Turning to VSSRVRGYTCQFVDMVL [FAS1], the protein stability index turned out to be 1.76 ± 0.09 (doa10∆), 1.94 ± 0.07 (pdr5∆), 1.44 ± 0.094 (san1∆) and 2.02 ± 0.081 (ubr1∆).

Regarding VSSSKNKKSEENEMIKP [SWP82], the protein stability index was 2.72 ± 0.25 (doa10∆), 3.34 ± 0.14 (pdr5∆), 3.18 ± 0.14 (san1∆) and 3.49 ± 0.28 (ubr1∆).

Regarding VSTETFEQPSQREEAKK [RPL27A], the protein stability index (doa10∆) amounted to 2.9 ± 0.061, the protein stability index (pdr5∆) is 2.73 ± 0.07, the protein stability index (san1∆) is 2.73 ± 0.054 and the protein stability index (ubr1∆) came to 3.1 ± 0.067.

With VSVLLISKDCSAFACKT [BRR2], the protein stability index came to 1.96 ± 0.052 (doa10∆), 2.27 ± 0.042 (pdr5∆), 2.21 ± 0.064 (san1∆) and 2.17 ± 0.049 (ubr1∆).

Consider VTEANIIKLVEGLANDP [RPS12], for which the protein stability index worked out at 2.51 ± 0.12 (doa10∆), 2.76 ± 0.073 (pdr5∆), 2.67 ± 0.085 (san1∆) and 2.73 ± 0.073 (ubr1∆).

In the case of VTEETTKQIQSVRIDGR [SIR4], the protein stability index (doa10∆) was found to be 2.31 ± 0.086, the protein stability index (pdr5∆) turned out to be 3.06 ± 0.077, the protein stability index (san1∆) is 2.83 ± 0.066 and the protein stability index (ubr1∆) came to 2.12 ± 0.074.

As for VTHMDQIFVRGSQIKFI [SMD3], the protein stability index is, setting by setting: (doa10∆) 2.55 ± 0.13; (pdr5∆) 2.67 ± 0.14; (san1∆) 2.17 ± 0.13; (ubr1∆) 2.04 ± 0.067.

Turning to VTLDITTLTIMRILPRE [RPT4], the protein stability index reads like this: (doa10∆) 2.53 ± 0.057; (pdr5∆) 2.25 ± 0.061; (san1∆) 2.17 ± 0.081; (ubr1∆) 2.45 ± 0.038.

Take VTLSQLVSVTSTLQHFQ [MED8]: the protein stability index (doa10∆) is 1.9 ± 0.029, the protein stability index (pdr5∆) was 2.02 ± 0.031, the protein stability index (san1∆) came out at 1.96 ± 0.037 and the protein stability index (ubr1∆) was 1.87 ± 0.02.

With VTNALDNIDEKVVKAIR [NUT1], the protein stability index reads like this: (doa10∆) 3.04 ± 0.16; (pdr5∆) 2.37 ± 0.14; (san1∆) 3.07 ± 0.083; (ubr1∆) 1.61 ± 0.048.

Consider VTNFNSTNEDQNNSKHT [SRB5], for which the protein stability index is, setting by setting: (doa10∆) 3.18 ± 0.16; (pdr5∆) 2.44 ± 0.15; (san1∆) 3.06 ± 0.18; (ubr1∆) 2.71 ± 0.076.

VTNSPLFQTIEKLINNS [ECM29]: the protein stability index was found to be 2.73 ± 0.054 (doa10∆), 2.85 ± 0.058 (pdr5∆), 2.76 ± 0.085 (san1∆) and 2.92 ± 0.066 (ubr1∆).

In the case of VTQSNILSQQFDKIIKI [SRB8], the protein stability index is, setting by setting: (doa10∆) 2.72 ± 0.07; (pdr5∆) 2.96 ± 0.071; (san1∆) 2.95 ± 0.056; (ubr1∆) 2.89 ± 0.045.

In the case of VTRTHGNSGVVRATFRN [RPL33A], the protein stability index reads like this: (doa10∆) 2.6 ± 0.075; (pdr5∆) 2.82 ± 0.088; (san1∆) 2.56 ± 0.092; (ubr1∆) 2.86 ± 0.073.

On to VTSADSNLKISLVKYPE [SWI1], for which the protein stability index (doa10∆) worked out at 2.61 ± 0.067, the protein stability index (pdr5∆) was determined as 2.72 ± 0.073, the protein stability index (san1∆) is 2.52 ± 0.085 and the protein stability index (ubr1∆) came to 2.75 ± 0.05.

In the case of VTTCVYLACKVEECPQY [SSN8], the protein stability index is, setting by setting: (doa10∆) 1.93 ± 0.059; (pdr5∆) 2.05 ± 0.075; (san1∆) 2.58 ± 0.11; (ubr1∆) 1.96 ± 0.073.

Sequence VTVHSLTGEATANALPL [RPL4A] returned a protein stability index (doa10∆) of 2.75 ± 0.069, a protein stability index (pdr5∆) of 2.76 ± 0.053, a protein stability index (san1∆) of 2.17 ± 0.052 and a protein stability index (ubr1∆) of 2.86 ± 0.041.

In the case of VVAKLEDKRKVRSAEYY [RPL16B], the protein stability index stood at 3.49 ± 0.1 (doa10∆), 3.58 ± 0.11 (pdr5∆), 3.15 ± 0.12 (san1∆) and 3.37 ± 0.14 (ubr1∆).

VVDFLKRNGSTLEQKVN [FAS1] came in with a protein stability index (doa10∆) of 2.83 ± 0.057, a protein stability index (pdr5∆) of 3.03 ± 0.049, a protein stability index (san1∆) of 2.87 ± 0.048 and a protein stability index (ubr1∆) of 3.07 ± 0.04.

For VVEEFTPVVLATPIPEE [RPS5], the protein stability index by setting is: (doa10∆) 2.69 ± 0.13; (pdr5∆) 2.27 ± 0.069; (san1∆) 2.13 ± 0.056; (ubr1∆) 2.17 ± 0.049.

Regarding VVGQNQLIDQFEWDISN [SNF5], the protein stability index came to 2.52 ± 0.093 (doa10∆), 2.62 ± 0.1 (pdr5∆), 2.9 ± 0.062 (san1∆) and 3 ± 0.12 (ubr1∆).

In turn, VVIEKRRKKILNEIELD [GRR1] came in with a protein stability index (doa10∆) of 2.03 ± 0.14, a protein stability index (pdr5∆) of 2.77 ± 0.1, a protein stability index (san1∆) of 2.05 ± 0.17 and a protein stability index (ubr1∆) of 2.96 ± 0.054.

Regarding VVILARAKALGIKVTNP [RPL32], the protein stability index came to 3.16 ± 0.14 (doa10∆), 3.2 ± 0.16 (pdr5∆), 2.55 ± 0.12 (san1∆) and 2.93 ± 0.076 (ubr1∆).

The record behind these values is the supplement of paper PMC9732359.
